Patent publication US20130210709A1 (ANCHOR THERAPEUTICS, published 2013)
* marks the point of attachment. C27H50N3O2SC(O)‑ = not defined here; Palmitoyl = CCCCCCCCCCCCCCCC(=O)*

B1: CXCR4 i1 loop compound 40 (peptide)
peptide: Palmitoyl-YQKKLRSMTDKYRLHLSV-NH2
SMILES: CCCCCCCCCCCCCCCC(=O)N[C@@H](Cc1ccc(O)cc1)C(=O)N[C@@H](CCC(N)=O)C(=O)N[C@@H](CCCCN)C(=O)N[C@@H](CCCCN)C(=O)N[C@@H](CC(C)C)C(=O)N[C@@H](CCCNC(=N)N)C(=O)N[C@@H](CO)C(=O)N[C@@H](CCSC)C(=O)N[C@H](C(=O)N[C@@H](CC(=O)O)C(=O)N[C@@H](CCCCN)C(=O)N[C@@H](Cc1ccc(O)cc1)C(=O)N[C@@H](CCCNC(=N)N)C(=O)N[C@@H](CC(C)C)C(=O)N[C@@H](Cc1c[nH]cn1)C(=O)N[C@@H](CC(C)C)C(=O)N[C@@H](CO)C(=O)N[C@H](C(N)=O)C(C)C)[C@@H](C)O
B2: CXCR4 i1 loop compound 41 (peptide)
peptide: Palmitoyl-KKLRSMTDKYRLHLSV-NH2
SMILES: CCCCCCCCCCCCCCCC(=O)N[C@@H](CCCCN)C(=O)N[C@@H](CCCCN)C(=O)N[C@@H](CC(C)C)C(=O)N[C@@H](CCCNC(=N)N)C(=O)N[C@@H](CO)C(=O)N[C@@H](CCSC)C(=O)N[C@H](C(=O)N[C@@H](CC(=O)O)C(=O)N[C@@H](CCCCN)C(=O)N[C@@H](Cc1ccc(O)cc1)C(=O)N[C@@H](CCCNC(=N)N)C(=O)N[C@@H](CC(C)C)C(=O)N[C@@H](Cc1c[nH]cn1)C(=O)N[C@@H](CC(C)C)C(=O)N[C@@H](CO)C(=O)N[C@H](C(N)=O)C(C)C)[C@@H](C)O
B3: CXCR4 i1 loop compound 42 (peptide)
peptide: Palmitoyl-KKLRSMTDKYRLHL-NH2
SMILES: CCCCCCCCCCCCCCCC(=O)N[C@@H](CCCCN)C(=O)N[C@@H](CCCCN)C(=O)N[C@@H](CC(C)C)C(=O)N[C@@H](CCCNC(=N)N)C(=O)N[C@@H](CO)C(=O)N[C@@H](CCSC)C(=O)N[C@H](C(=O)N[C@@H](CC(=O)O)C(=O)N[C@@H](CCCCN)C(=O)N[C@@H](Cc1ccc(O)cc1)C(=O)N[C@@H](CCCNC(=N)N)C(=O)N[C@@H](CC(C)C)C(=O)N[C@@H](Cc1c[nH]cn1)C(=O)N[C@@H](CC(C)C)C(N)=O)[C@@H](C)O
B4: Compound No. 88 (Pal-SKLSHSKGHQKRKALKTTVIL-amide) (peptide)
peptide: Palmitoyl-SKLSHSKGHQKRKALKTTVIL-NH2
SMILES: CCCCCCCCCCCCCCCC(=O)N[C@@H](CO)C(=O)N[C@@H](CCCCN)C(=O)N[C@@H](CC(C)C)C(=O)N[C@@H](CO)C(=O)N[C@@H](Cc1c[nH]cn1)C(=O)N[C@@H](CO)C(=O)N[C@@H](CCCCN)C(=O)NCC(=O)N[C@@H](Cc1c[nH]cn1)C(=O)N[C@@H](CCC(N)=O)C(=O)N[C@@H](CCCCN)C(=O)N[C@@H](CCCNC(=N)N)C(=O)N[C@@H](CCCCN)C(=O)N[C@@H](C)C(=O)N[C@@H](CC(C)C)C(=O)N[C@@H](CCCCN)C(=O)N[C@H](C(=O)N[C@H](C(=O)N[C@H](C(=O)N[C@H](C(=O)N[C@@H](CC(C)C)C(N)=O)[C@@H](C)CC)C(C)C)[C@@H](C)O)[C@@H](C)O
B5: CXCR4 i3 loop compound 89 (peptide)
peptide: Palmitoyl-KLSHSKGHQKRKALKTTVIL-NH2
SMILES: CCCCCCCCCCCCCCCC(=O)N[C@@H](CCCCN)C(=O)N[C@@H](CC(C)C)C(=O)N[C@@H](CO)C(=O)N[C@@H](Cc1c[nH]cn1)C(=O)N[C@@H](CO)C(=O)N[C@@H](CCCCN)C(=O)NCC(=O)N[C@@H](Cc1c[nH]cn1)C(=O)N[C@@H](CCC(N)=O)C(=O)N[C@@H](CCCCN)C(=O)N[C@@H](CCCNC(=N)N)C(=O)N[C@@H](CCCCN)C(=O)N[C@@H](C)C(=O)N[C@@H](CC(C)C)C(=O)N[C@@H](CCCCN)C(=O)N[C@H](C(=O)N[C@H](C(=O)N[C@H](C(=O)N[C@H](C(=O)N[C@@H](CC(C)C)C(N)=O)[C@@H](C)CC)C(C)C)[C@@H](C)O)[C@@H](C)O
B6: Compound No. 90 (Pal-KLSHSKGHQKRKALKTTV-amide) (peptide)
peptide: Palmitoyl-KLSHSKGHQKRKALKTTV-NH2
SMILES: CCCCCCCCCCCCCCCC(=O)N[C@@H](CCCCN)C(=O)N[C@@H](CC(C)C)C(=O)N[C@@H](CO)C(=O)N[C@@H](Cc1c[nH]cn1)C(=O)N[C@@H](CO)C(=O)N[C@@H](CCCCN)C(=O)NCC(=O)N[C@@H](Cc1c[nH]cn1)C(=O)N[C@@H](CCC(N)=O)C(=O)N[C@@H](CCCCN)C(=O)N[C@@H](CCCNC(=N)N)C(=O)N[C@@H](CCCCN)C(=O)N[C@@H](C)C(=O)N[C@@H](CC(C)C)C(=O)N[C@@H](CCCCN)C(=O)N[C@H](C(=O)N[C@H](C(=O)N[C@H](C(N)=O)C(C)C)[C@@H](C)O)[C@@H](C)O
B7: CXCR4 i3 loop compound 92 (peptide)
peptide: Palmitoyl-KLSHSKGHQKRKALK-NH2
SMILES: CCCCCCCCCCCCCCCC(=O)N[C@@H](CCCCN)C(=O)N[C@@H](CC(C)C)C(=O)N[C@@H](CO)C(=O)N[C@@H](Cc1c[nH]cn1)C(=O)N[C@@H](CO)C(=O)N[C@@H](CCCCN)C(=O)NCC(=O)N[C@@H](Cc1c[nH]cn1)C(=O)N[C@@H](CCC(N)=O)C(=O)N[C@@H](CCCCN)C(=O)N[C@@H](CCCNC(=N)N)C(=O)N[C@@H](CCCCN)C(=O)N[C@@H](C)C(=O)N[C@@H](CC(C)C)C(=O)N[C@@H](CCCCN)C(N)=O
B8: CXCR4 i3 loop compound 93 (peptide)
peptide: Palmitoyl-KLSHSKGHQKRKAL-NH2
SMILES: CCCCCCCCCCCCCCCC(=O)N[C@@H](CCCCN)C(=O)N[C@@H](CC(C)C)C(=O)N[C@@H](CO)C(=O)N[C@@H](Cc1c[nH]cn1)C(=O)N[C@@H](CO)C(=O)N[C@@H](CCCCN)C(=O)NCC(=O)N[C@@H](Cc1c[nH]cn1)C(=O)N[C@@H](CCC(N)=O)C(=O)N[C@@H](CCCCN)C(=O)N[C@@H](CCCNC(=N)N)C(=O)N[C@@H](CCCCN)C(=O)N[C@@H](C)C(=O)N[C@@H](CC(C)C)C(N)=O
B9: CXCR4 i3 loop compound 94 (peptide)
peptide: Palmitoyl-KLSHSKGHQKRKA-NH2
SMILES: CCCCCCCCCCCCCCCC(=O)N[C@@H](CCCCN)C(=O)N[C@@H](CC(C)C)C(=O)N[C@@H](CO)C(=O)N[C@@H](Cc1c[nH]cn1)C(=O)N[C@@H](CO)C(=O)N[C@@H](CCCCN)C(=O)NCC(=O)N[C@@H](Cc1c[nH]cn1)C(=O)N[C@@H](CCC(N)=O)C(=O)N[C@@H](CCCCN)C(=O)N[C@@H](CCCNC(=N)N)C(=O)N[C@@H](CCCCN)C(=O)N[C@@H](C)C(N)=O
B10: CXCR4 i3 loop compound 95 (peptide)
peptide: Palmitoyl-LSHSKGHQKRKALK-NH2
SMILES: CCCCCCCCCCCCCCCC(=O)N[C@@H](CC(C)C)C(=O)N[C@@H](CO)C(=O)N[C@@H](Cc1c[nH]cn1)C(=O)N[C@@H](CO)C(=O)N[C@@H](CCCCN)C(=O)NCC(=O)N[C@@H](Cc1c[nH]cn1)C(=O)N[C@@H](CCC(N)=O)C(=O)N[C@@H](CCCCN)C(=O)N[C@@H](CCCNC(=N)N)C(=O)N[C@@H](CCCCN)C(=O)N[C@@H](C)C(=O)N[C@@H](CC(C)C)C(=O)N[C@@H](CCCCN)C(N)=O
B11: CXCR4 i3 loop compound 96 (peptide)
peptide: Palmitoyl-SHSKGHQKRKALK-NH2
SMILES: CCCCCCCCCCCCCCCC(=O)N[C@@H](CO)C(=O)N[C@@H](Cc1c[nH]cn1)C(=O)N[C@@H](CO)C(=O)N[C@@H](CCCCN)C(=O)NCC(=O)N[C@@H](Cc1c[nH]cn1)C(=O)N[C@@H](CCC(N)=O)C(=O)N[C@@H](CCCCN)C(=O)N[C@@H](CCCNC(=N)N)C(=O)N[C@@H](CCCCN)C(=O)N[C@@H](C)C(=O)N[C@@H](CC(C)C)C(=O)N[C@@H](CCCCN)C(N)=O
B12: CXCR4 i3 loop compound 97 (peptide)
peptide: Palmitoyl-HSKGHQKRKALKT-NH2
SMILES: CCCCCCCCCCCCCCCC(=O)N[C@@H](Cc1c[nH]cn1)C(=O)N[C@@H](CO)C(=O)N[C@@H](CCCCN)C(=O)NCC(=O)N[C@@H](Cc1c[nH]cn1)C(=O)N[C@@H](CCC(N)=O)C(=O)N[C@@H](CCCCN)C(=O)N[C@@H](CCCNC(=N)N)C(=O)N[C@@H](CCCCN)C(=O)N[C@@H](C)C(=O)N[C@@H](CC(C)C)C(=O)N[C@@H](CCCCN)C(=O)N[C@H](C(N)=O)[C@@H](C)O

molecular target: T1, CXCR4 receptor (human, UniProt P61073 1-352); assay: cell-based or functional assay
T1 sequence (P61073 whole entry): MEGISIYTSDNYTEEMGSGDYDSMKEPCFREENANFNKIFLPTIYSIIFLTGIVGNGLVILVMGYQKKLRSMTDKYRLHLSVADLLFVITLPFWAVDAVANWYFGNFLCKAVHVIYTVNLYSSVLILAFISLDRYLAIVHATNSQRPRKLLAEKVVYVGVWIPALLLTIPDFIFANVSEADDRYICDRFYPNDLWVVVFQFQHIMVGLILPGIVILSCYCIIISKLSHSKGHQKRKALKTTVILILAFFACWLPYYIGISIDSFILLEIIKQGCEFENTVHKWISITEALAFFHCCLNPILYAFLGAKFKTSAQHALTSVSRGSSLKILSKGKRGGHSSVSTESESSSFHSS

| Binder | AUC (% of), CHTX, SUP B-15, 1.0 uM | Max (% of), CHTX, SUP B-15, 1.0 uM | Peak Ratio, CHTX, SUP B-15, 1.0 uM | AUC (% of), CHTX, CEM, 1.0 uM | Max (% of), CHTX, CEM, 1.0 uM | Peak Ratio, CHTX, CEM, 1.0 uM | Peak Ratio, CHTX, CEM, 1.0 uM (row labelled 46, sequence of 42) |
| --- | --- | --- | --- | --- | --- | --- | --- |
| B1 | 71.9% | 71.2% | 0.2 | – | – | – | – |
| B2 | 51.7% | 41.7% | 0.04 | 66.7% | 76.8% | 0.01 | – |
| B3 | 43.8% | 33.5% | 0.2 | – | – | – | 0.01 |

molecular target: T1, CXCR4 receptor; assay: cell-based or functional assay; remark: another data set of the same source

| Binder | AUC (% of vehicle), chemotaxis, CEM, 1.0 uM | Max (% of vehicle), chemotaxis, CEM, 1.0 uM | Peak Ratio, chemotaxis, CEM, 1.0 uM | Peak Ratio, chemotaxis, CEM, 0.01 uM | Peak Ratio, chemotaxis, CEM, 0.03 uM | Peak Ratio, chemotaxis, CEM, 0.1 uM | Peak Ratio, chemotaxis, CEM, 0.3 uM | Peak Ratio, chemotaxis, CEM, 3.0 uM |
| --- | --- | --- | --- | --- | --- | --- | --- | --- |
| {C27H50N3O2SC(O)‑}-HSKGHQKRKQALK-NH2 (reading uncertain) [CXCR4 i3 loop compound 87] | 52.6 % of vehicle | 76.1 % of vehicle | 0.2 | – | – | – | – | – |
| B4 | 144 % of vehicle | 132 % of vehicle | 1 | 0.04 | 0.04 | 0.04 | 0.2 | 1 |
| B5 | 37.5 % of vehicle | 59.7 % of vehicle | 0.04 | – | – | – | – | – |
| B6 | – | – | – | 1 | 1 | 0.2 | 1 | 1 |
| B7 | – | – | 0.2 | 0.2 | 0.2 | 0.2 | 0.2 | 1 |
| B8 | 15.9 % of vehicle | 54.8 % of vehicle | 0.2 | – | – | – | – | – |
| B9 | 65.3 % of vehicle | 80.5 % of vehicle | 1 | – | – | – | – | – |
| B10 | 77.5 % of vehicle | 92.1 % of vehicle | 1 | – | – | – | – | – |
| B11 | 34.2 % of vehicle | 63.1 % of vehicle | 1 | – | – | – | – | – |
| B12 | 48.9 % of vehicle | 54.7 % of vehicle | 0.2 | – | – | – | – | – |
